Where two headings read alike, the source gives them in different places.
T1: FITC-NS5AB-1 peptide substrate FITC-Ahx-EDVV-(alpha)Abu-CSMSYTKK-NH2
T1 chain: XEDVVXCSMSYTKK

T2: NS5AB peptide substrate NH2-EDVV-(alpha)Abu-CSMSY-COOH
T2 chain: EDVVXCSMSY

T3: NS5AB-EDANS peptide substrate NH2-EDVV-(alpha)Abu-CSMSYT-Asp(EDANS)-KKK-COOH
T3 chain: EDVVXCSMSYTDKKK

B1: NS3•4A protein with an N-terminal histidine tag (protein)
chain: MSHHHHHHAMAPITAYAQQTRGLLGCIITSLTGRDKNQVEGEVQIVSTATQTFLATCINGVCWTVYHGAGTRTIASPKGPVIQMYTNVDQDLVGWPAPQGSRSLTPCTCGSSDLYLVTRHADVIPVRRRGDSRGSLLSPRPISYLKGSSGGPLLCPAGHAVGLFRAAVCTRGVTKAVDFIPVENLETTMRSPVFTDNSSPPAVPQSFQVAHLHAPTGSGKSTKVPAAYAAQGYKVLVLNPSVAATLGFGAYMSKAHGVDPNIRTGVRTITTGSPITYSTYGKFLADGGCSGGAYDIIICDECHSTDATSILGIGTVLDQAETAGARLVVLATATPPGSVTVSHPNIEEVALSTTGEIPFYGKAIPLEVIKGGRHLIFCHSKKKCDELAAKLVALGINAVAYYRGLDVSVIPTNGDVVVVSTDALMTGFTGDFDSVIDCNTCVTQTVDFSLDPTFTIETTTLPQDAVSRTQRRGRTGRGKPGIYRFVAPGERPSGMFDSSVLCECYDAGCAWYELMPAETTVRLRAYMNTPGLPVCQDHLEFWEGVFTGLTHIDAHFLSQTKQSGENFPYLVAYQATVCARAQAPPPSWDQMWKCLIRLKPTLHGPTPLLYRLGAVQNEVTLTHPITKYIMTCMSADLEVVTSTWVLVGGVLAALAAYCLSTGCVVIVGRIVLSGKPAIIPDREVLYQEFDEMEEC

Assays:
[1] = test system: NS5AB peptide substrate NH2-EDVV-(alpha)Abu-CSMSY-COOH
[2] = target: T1, FITC-NS5AB-1 peptide substrate …
[3] = target: T2, NS5AB peptide substrate …
[4] = target: T3, NS5AB-EDANS peptide substrate …

Molecule | Km [1] | kcat/Km [1] | Km [2] | kcat/Km [2] | Km [3] | kcat/Km [3] | Km [4] | kcat/Km [4]
HCV NS3 protease domain (residues Ala1-Ser181 of HCV NS3 protease, C-terminal hexa-histidine tag) | 25 µM | 30000 M⁻¹ s⁻¹ |  |  |  |  |  | 
B1 |  |  | 15 µM | 1200 M⁻¹ s⁻¹ | 30 µM | 7900 M⁻¹ s⁻¹ | 56 µM | 1400 M⁻¹ s⁻¹

Reference: patent publication US20100216161
